# According to US20240033343A1:
# Tests used:
# W1GSG (SARS-CoV-2) = W1GSG (SARS-CoV-2) (UniProt P0DTC2)
# [1] = biological target: W2GGSGG (SARS-CoV-2; HIV) (UniProt P0DTC2)
# RAA (SARS-CoV-2; HIV) = RAA (SARS-CoV-2; HIV) (UniProt P0DTC2)
# W2GSG (SARS-CoV-2; HIV) = W2GSG (SARS-CoV-2; HIV) (UniProt P0DTC2)
# W1GGSG (SARS-CoV-2; HIV) = W1GGSG (SARS-CoV-2; HIV) (UniProt P0DTC2)
# [2] = biological target: SARS-CoV-2 Sclamp (SARS-CoV-2) (UniProt P0DTC2)
# S1GSG (SARS-CoV-2) = S1GSG (SARS-CoV-2) (UniProt P0DTC2)
# S2GSG (SARS-CoV-2) = S2GSG (SARS-CoV-2) (UniProt P0DTC2)
# S1GGSGG (SARS-CoV-2) = S1GGSGG (SARS-CoV-2) (UniProt P0DTC2)
# AAAA (SARS-CoV-2; HIV) = AAAA (SARS-CoV-2; HIV) (UniProt P0DTC2)
# M1GGSGG (SARS-CoV-2) = M1GGSGG (SARS-CoV-2) (UniProt P0DTC2)
# S2GGSGG (SARS-CoV-2) = S2GGSGG (SARS-CoV-2) (UniProt P0DTC2)
substance,measurement,setting,value
CR3022 (antibody),Kd,W1GSG (SARS-CoV-2),1.08 nM
same,Kd,[1],1.09 nM
same,Kd,RAA (SARS-CoV-2; HIV),0.91 nM
same,Kd,W2GSG (SARS-CoV-2; HIV),2.06 nM
same,Kd,W1GGSG (SARS-CoV-2; HIV),0.89 nM
same,Kd,[2],0.58 nM
same,Kd,S1GSG (SARS-CoV-2),1.02 nM
same,Kd,S2GSG (SARS-CoV-2),1.03 nM
same,Kd,S1GGSGG (SARS-CoV-2),0.69 nM
same,Kd,AAAA (SARS-CoV-2; HIV),0.74 nM
same,Kd,M1GGSGG (SARS-CoV-2),0.57 nM
same,Kd,S2GGSGG (SARS-CoV-2),1.18 nM
